# Numbering of substitutions follows the chain as printed. Like-named read-outs stand apart in the source and are kept apart here.
# B1: huCD123-6Gv4.7-CysMab (antibody)
# heavy chain: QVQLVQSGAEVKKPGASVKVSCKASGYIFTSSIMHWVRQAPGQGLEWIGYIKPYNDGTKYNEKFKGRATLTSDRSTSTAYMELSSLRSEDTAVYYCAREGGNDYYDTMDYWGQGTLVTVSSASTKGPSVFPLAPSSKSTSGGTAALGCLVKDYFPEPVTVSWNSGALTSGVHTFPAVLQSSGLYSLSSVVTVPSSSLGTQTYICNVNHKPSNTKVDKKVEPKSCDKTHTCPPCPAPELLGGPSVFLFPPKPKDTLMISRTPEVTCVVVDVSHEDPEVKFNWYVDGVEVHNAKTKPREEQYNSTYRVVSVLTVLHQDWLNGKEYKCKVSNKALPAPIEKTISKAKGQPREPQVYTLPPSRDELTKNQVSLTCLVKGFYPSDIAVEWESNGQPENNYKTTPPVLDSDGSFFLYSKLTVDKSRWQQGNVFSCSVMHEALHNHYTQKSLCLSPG
# light chain: DIQMTQSPSSLSASVGDRVTITCRASQDINSYLSWFQQKPGKAPKTLIYRVNRLVDGVPSRFSGSGSGNDYTLTISSLQPEDFATYYCLQYDAFPYTFGQGTKVEIKR
# notes: Differs from m21 (huCD123-6Gv4.7) by the engineered Cys in the heavy chain CH3 domain; it is the antibody part of m29 and m30
# B2: muCD123-14 (antibody, mouse IgG1, kappa, V domains shown)
# VH: EVKLVESGGDLVKPGGSLKLSCAASGFTFSNYAMSWVRQNSEKRLEWVATINSGGSFTYYPDSVKGRFTISRDNAKDSLYLQMSSLNSEDTAMYYCARQSEAYYGYDKRTWFAYWGQGTLVTVSS
# VL: DILLTQSPAILSVSPGTRVSFSCRASQSVGTSIHWYQQRPNGFPRLLIKYASESISGIPSRFSGSGSGTDFTLNINSVESEDIADYYCQQSKSWPLTFGAGTKLELKR
# notes: Murine monoclonal antibody purified from hybridoma supernatant; also called CD123Mu-14; CD123 Mu-14
# B3: muCD123-3 (antibody, mouse IgG1, kappa, V domains shown)
# VH: EFQLQQSGPEVVKPGASVKMSCKASGYTFTSYVMHWMKQKPGQGLEWIGYIKPYKDGTKYNEKFKGKATLISDKPSSTAYMELSSLTSEDSAVYYCAREGENGYYDAMDYWGQGTSVTVSS
# VL: DIQMTQSPSSLSASLGGKVTITCKASQDINKYIAWYQHKPGKGPRLLIHYTSTLQPGIPSRFSGSGSGRDYSFSISNLEPEDIATYYCLQYDNLLYTFGGGTKLELKR
# notes: Murine monoclonal antibody purified from hybridoma supernatant; also called CD123Mu-3; CD123 Mu-3
# B4: huCD123-6Gv4.7-CysMab-D4 (antibody)
# heavy: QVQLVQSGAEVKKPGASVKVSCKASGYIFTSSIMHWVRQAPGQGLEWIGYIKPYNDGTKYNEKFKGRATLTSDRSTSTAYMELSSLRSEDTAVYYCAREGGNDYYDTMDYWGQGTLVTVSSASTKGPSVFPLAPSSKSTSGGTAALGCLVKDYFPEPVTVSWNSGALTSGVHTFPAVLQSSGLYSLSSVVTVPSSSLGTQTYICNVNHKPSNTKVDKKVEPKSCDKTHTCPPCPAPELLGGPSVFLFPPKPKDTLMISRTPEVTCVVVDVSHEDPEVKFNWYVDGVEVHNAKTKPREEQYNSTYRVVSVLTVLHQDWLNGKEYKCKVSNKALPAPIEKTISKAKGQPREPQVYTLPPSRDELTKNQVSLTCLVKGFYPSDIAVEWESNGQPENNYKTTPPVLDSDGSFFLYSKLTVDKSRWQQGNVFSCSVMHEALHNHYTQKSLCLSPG
# light: DIQMTQSPSSLSASVGDRVTITCRASQDINSYLSWFQQKPGKAPKTLIYRVNRLVDGVPSRFSGSGSGNDYTLTISSLQPEDFATYYCLQYDAFPYTFGQGTKVEIKRTVAAPSVFIFPPSDEQLKSGTASVVCLLNNFYPREAKVQWKVDNALQSGNSQESVTEQDSKDSTYSLSSTLTLSKADYEKHKVYACEVTHQGLSSPVTKSFNRGEC
# modifications: D4 linked through the engineered Cys in the heavy chain CH3 domain (5th to the last residue of SEQ ID NO: 54; EU/OU position 442); 1.8 mol D4/mol antibody
# B5: huCD123-6Gv4.7S3-D2 (antibody, human IgG1, kappa)
# heavy: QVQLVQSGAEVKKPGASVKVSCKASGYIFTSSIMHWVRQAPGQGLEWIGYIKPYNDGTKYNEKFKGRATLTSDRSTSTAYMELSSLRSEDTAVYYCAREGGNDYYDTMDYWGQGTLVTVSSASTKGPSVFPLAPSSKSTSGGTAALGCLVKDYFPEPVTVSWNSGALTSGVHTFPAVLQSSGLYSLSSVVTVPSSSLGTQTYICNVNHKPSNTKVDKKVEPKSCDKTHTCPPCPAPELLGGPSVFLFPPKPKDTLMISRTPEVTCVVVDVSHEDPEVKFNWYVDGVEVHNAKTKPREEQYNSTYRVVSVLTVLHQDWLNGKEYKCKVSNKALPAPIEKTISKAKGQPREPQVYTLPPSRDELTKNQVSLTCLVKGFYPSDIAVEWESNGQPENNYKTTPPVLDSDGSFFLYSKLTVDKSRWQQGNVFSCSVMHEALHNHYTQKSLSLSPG
# light: B4 light with D1S
# modifications: D2 linked at Lys residues; sites not stated; D2 linked at Lys residues; average of 2.9 D2 per antibody, sites not stated
# B6: huCD123-6Gv4.7S3-sSPDB-D1 (antibody, human IgG1, kappa)
# heavy: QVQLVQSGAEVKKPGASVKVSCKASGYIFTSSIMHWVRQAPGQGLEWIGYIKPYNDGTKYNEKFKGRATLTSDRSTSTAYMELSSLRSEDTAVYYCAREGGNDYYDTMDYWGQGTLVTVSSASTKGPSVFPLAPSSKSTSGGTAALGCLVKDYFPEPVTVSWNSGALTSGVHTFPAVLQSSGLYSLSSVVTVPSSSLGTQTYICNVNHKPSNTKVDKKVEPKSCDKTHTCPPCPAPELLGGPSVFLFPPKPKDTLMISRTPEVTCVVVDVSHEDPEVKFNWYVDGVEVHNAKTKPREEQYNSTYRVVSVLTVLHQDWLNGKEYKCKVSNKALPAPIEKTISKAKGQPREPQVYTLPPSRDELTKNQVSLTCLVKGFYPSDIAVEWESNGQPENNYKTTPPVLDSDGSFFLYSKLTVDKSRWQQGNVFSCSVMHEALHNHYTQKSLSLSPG
# light: B4 light with D1S
# modifications: D1 linked at Lys residues via a sulfonated SPDB linker; sites not stated; D1 linked at Lys residues via a sulfonated SPDB linker; average of 2.9 D1 per antibody, sites not stated
# notes: also called huCD123Gv4.7S3-sulfo-SPDB-D1
# B7: huCD123-6Gv4.6-CysMab-D5 (antibody)
# heavy: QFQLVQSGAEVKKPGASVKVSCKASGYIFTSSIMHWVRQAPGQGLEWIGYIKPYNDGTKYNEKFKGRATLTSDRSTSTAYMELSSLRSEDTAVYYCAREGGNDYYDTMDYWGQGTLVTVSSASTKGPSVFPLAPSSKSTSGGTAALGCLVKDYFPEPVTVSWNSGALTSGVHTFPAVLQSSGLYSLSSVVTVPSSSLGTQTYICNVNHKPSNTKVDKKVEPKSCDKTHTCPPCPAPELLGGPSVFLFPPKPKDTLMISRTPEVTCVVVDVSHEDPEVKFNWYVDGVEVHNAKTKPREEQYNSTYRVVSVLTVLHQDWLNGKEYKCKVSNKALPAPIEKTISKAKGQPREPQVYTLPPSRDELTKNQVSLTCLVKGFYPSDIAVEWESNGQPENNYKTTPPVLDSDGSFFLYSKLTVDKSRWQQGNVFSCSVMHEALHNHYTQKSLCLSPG
# light: B4 light
# modifications: D5 linked through the engineered Cys in the heavy chain CH3 domain (5th to the last residue of SEQ ID NO: 54)
# B8: huCD123-6Gv4.7S3-SeriMab-sD1 (antibody, human IgG1, kappa)
# heavy: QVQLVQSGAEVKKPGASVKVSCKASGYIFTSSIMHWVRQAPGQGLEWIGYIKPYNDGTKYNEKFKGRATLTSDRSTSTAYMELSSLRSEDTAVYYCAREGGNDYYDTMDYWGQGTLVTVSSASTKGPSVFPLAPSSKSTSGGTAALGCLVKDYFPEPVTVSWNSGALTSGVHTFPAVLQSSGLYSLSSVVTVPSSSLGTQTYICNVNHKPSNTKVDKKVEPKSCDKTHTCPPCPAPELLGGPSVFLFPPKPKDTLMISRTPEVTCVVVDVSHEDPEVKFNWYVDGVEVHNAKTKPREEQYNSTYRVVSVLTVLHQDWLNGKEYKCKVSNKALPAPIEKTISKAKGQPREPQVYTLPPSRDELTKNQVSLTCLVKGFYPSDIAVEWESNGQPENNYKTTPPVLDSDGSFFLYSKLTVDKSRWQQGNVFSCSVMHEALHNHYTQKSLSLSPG
# light: B4 light with D1S
# modifications: sulfonated D1 (sD1) linked through the oxidized N-terminal Ser on the light chain; average of 2.0 D1 per antibody
# notes: also called huCD123-6-SeriMab-sD1
# B9: huCD123-6Rv1.1S2-SeriMab-D8 (antibody, human IgG1, kappa)
# heavy: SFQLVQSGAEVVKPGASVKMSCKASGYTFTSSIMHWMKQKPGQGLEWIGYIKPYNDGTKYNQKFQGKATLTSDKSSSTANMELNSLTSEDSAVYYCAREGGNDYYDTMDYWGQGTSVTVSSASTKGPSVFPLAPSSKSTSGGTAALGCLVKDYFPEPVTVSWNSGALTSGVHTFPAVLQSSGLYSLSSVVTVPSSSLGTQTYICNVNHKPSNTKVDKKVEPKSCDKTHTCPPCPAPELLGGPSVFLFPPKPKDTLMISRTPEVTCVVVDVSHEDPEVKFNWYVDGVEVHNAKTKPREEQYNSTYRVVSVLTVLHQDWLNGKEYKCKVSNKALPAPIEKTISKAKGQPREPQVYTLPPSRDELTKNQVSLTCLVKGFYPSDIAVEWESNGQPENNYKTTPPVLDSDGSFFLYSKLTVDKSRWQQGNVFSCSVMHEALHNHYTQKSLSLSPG
# light: B4 light with L11M, D17E, A43S, N69Q, T72S, Q79E, F83M, A84G, T85I, V104L
# modifications: D8 linked through the oxidized N-terminal Ser on the heavy chain
# B10: huCD123-6Rv1.1-CX1-1-DM1 (antibody)
# heavy: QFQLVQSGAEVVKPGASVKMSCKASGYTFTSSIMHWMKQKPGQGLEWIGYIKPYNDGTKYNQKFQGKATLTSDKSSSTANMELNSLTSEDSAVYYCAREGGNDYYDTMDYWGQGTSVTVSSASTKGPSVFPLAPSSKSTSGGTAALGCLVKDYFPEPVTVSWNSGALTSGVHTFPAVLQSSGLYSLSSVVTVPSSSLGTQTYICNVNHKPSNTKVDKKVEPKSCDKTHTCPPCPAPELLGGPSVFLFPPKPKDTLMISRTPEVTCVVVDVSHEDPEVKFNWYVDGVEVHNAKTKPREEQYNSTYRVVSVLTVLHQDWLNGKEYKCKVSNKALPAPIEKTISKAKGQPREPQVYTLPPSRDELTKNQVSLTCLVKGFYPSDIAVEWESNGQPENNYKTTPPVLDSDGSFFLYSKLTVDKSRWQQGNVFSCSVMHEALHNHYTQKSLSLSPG
# light: B4 light with L11M, D17E, A43S, N69Q, T72S, Q79E, F83M, A84G, T85I, V104L
# modifications: DM1 linked at Lys residues via the triglycyl CX1-1 linker; sites not stated; DM1 linked at Lys residues via the triglycyl CX1-1 linker; average of 4.3 or 6.7 maytansinoid per antibody, sites not stated
# B11: huCD123-6Gv4.7S3-SeriMab-D8 (antibody, human IgG1, kappa)
# heavy: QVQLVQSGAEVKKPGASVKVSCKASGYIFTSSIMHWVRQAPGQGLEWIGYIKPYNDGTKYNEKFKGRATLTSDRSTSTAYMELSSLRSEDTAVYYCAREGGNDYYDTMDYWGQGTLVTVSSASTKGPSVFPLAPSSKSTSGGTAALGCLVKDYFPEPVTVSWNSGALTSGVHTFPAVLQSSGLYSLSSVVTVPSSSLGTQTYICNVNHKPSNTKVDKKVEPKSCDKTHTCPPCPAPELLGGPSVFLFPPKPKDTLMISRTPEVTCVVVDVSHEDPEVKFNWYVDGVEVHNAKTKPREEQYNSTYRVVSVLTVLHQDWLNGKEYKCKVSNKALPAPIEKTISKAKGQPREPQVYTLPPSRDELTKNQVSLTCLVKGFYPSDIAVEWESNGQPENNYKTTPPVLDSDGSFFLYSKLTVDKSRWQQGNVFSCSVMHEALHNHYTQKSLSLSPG
# light: B4 light with D1S
# modifications: D8 linked through the oxidized N-terminal Ser on the light chain
# B12: huCD123-6Rv1.1-D2 (antibody, human IgG1, kappa)
# heavy: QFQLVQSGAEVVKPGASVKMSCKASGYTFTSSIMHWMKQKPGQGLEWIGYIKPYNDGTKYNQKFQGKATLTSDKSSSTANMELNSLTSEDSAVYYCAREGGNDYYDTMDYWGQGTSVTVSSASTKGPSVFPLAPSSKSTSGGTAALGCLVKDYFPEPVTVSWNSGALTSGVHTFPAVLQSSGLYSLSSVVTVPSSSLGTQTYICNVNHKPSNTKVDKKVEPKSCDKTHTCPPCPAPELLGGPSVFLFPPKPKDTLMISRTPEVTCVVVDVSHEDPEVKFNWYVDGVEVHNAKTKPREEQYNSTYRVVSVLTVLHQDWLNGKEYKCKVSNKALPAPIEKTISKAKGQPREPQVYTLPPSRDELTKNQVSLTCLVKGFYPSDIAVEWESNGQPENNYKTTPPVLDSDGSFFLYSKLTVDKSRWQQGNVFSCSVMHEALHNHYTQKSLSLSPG
# light: B4 light with L11M, D17E, A43S, N69Q, T72S, Q79E, F83M, A84G, T85I, V104L
# modifications: D2 linked at Lys residues; sites not stated; D2 linked at Lys residues; sites and drug load not stated
# B13: huCD123-6Gv4.6-D2 (antibody, human IgG1, kappa)
# heavy: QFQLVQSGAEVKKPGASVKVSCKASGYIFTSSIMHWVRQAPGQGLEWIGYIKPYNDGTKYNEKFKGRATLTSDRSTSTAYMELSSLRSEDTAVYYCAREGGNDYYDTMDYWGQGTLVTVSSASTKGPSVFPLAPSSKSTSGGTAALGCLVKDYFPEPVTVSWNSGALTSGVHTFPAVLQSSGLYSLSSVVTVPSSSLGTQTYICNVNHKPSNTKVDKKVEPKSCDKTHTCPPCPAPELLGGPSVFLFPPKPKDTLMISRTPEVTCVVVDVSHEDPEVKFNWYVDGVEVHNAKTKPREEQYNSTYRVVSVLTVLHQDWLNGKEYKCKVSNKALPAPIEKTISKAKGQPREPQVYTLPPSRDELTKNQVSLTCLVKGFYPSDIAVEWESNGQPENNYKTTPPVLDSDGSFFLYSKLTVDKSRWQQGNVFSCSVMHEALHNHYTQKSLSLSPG
# light: B4 light
# modifications: D2 linked at Lys residues; sites not stated; D2 linked at Lys residues; sites and drug load not stated
# B14: huCD123-6Gv4.7-CysMab-D5 (antibody)
# heavy: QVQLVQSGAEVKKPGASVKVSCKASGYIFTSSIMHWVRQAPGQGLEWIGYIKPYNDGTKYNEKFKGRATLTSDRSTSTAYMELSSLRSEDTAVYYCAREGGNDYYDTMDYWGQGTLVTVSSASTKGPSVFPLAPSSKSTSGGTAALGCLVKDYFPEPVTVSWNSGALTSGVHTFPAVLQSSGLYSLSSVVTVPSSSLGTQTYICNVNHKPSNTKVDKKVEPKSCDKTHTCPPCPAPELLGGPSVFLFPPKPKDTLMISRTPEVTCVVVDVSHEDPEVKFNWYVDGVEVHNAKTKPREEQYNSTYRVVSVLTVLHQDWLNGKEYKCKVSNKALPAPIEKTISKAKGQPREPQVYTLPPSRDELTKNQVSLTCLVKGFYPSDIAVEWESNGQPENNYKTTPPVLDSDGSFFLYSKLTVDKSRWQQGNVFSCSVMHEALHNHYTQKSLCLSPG
# light: B4 light
# modifications: D5 linked through the engineered Cys in the heavy chain CH3 domain (5th to the last residue of SEQ ID NO: 54; EU/OU position 442); 2 mol D5/mol antibody
# notes: also called huCD123-CysMab-D5; Cys-linked D5 conjugate
# B15: muCD123-6 (antibody, mouse IgG1, kappa, V domains shown)
# VH: EFQLQQSGPELVKPGASVKMSCKASGYIFTSSIMHWMKQKPGQGLEWIGYIKPYNDGTKYNEKFKGKATLTSDKSSSTANMELNSLTSEDSAVYYCAREGGNDYYDTMDYWGQGTSVTVSS
# VL: DIKMTQSPSSMYASLGERVTITCKASQDINSYLSWFQQKPGKSPKTLIYRVNRLVDGVPSRFSGSGSGQDYSLTISSLEYEDMGIYYCLQYDAFPYTFGGGTKLEIKR
# notes: Murine monoclonal antibody purified from hybridoma supernatant; also called CD123Mu-6; CD123 Mu-6
# Columns and labels:
# [1] = target: T1, human CD123 (IL-3Rα, interleukin-3 receptor alpha chain) (human, UniProt P26951 19-378); assay: flow cytometry on HNT-34 cells, PE-conjugated goat anti-human secondary
# T1 construct: CD123 on human cell lines (TF-1, HNT-34, MOLM-13 and other AML, B-ALL, CML and NHL lines) or on 300-19 cells stably expressing human CD123; also called CD123 antigen; human CD123 antigen
# [2] = target: T1, human CD123 (IL-3Rα, interleukin-3 …); assay: cell-based or functional assay
# [3] = target: T1, human CD123 (IL-3Rα, interleukin-3 …); assay: flow cytometry on HNT-34 cells; EC50 of the binding curve taken as apparent Kd
# [4] = target: T1, human CD123 (IL-3Rα, interleukin-3 …); assay: flow cytometry on TF-1 cells; EC50 of the binding curve taken as apparent Kd; TF-1 cells
# Procedure: Binding affinity was tested by flow cytometry using purified antibodies. […] TF-1 cells (5×10⁴ cells per sample) were incubated with varying concentrations of murine antibodies in 200 μL FACS buffer (DMEM medium supplemented with 2% normal goat serum). The cells were then pelleted, washed twice, and incubated for 1 hr with 100 μL of phycoerythrin (PE)-conjugated goat anti-mouse IgG-antibody (Jackson Laboratory). The cells were pelleted again, washed with FACS buffer and resuspended in 200 μL of PBS containing 1% formaldehyde. Samples were acquired using a FACSCalibur flow cytometer with the HTS multiwell sampler, or a FACS array flow cytometer, and analyzed using CellQuest Pro (all from BD Biosciences, San Diego, US). For each sample the geomean fluorescence intensity for FL2 was calculated and plotted against the antibody concentration in a semi-log plot. A dose-response curve was generated by non-linear regression and the EC₅₀ value of each curve, which corresponds to the apparent dissociation constant (Kd) of each antibody, was calculated using GraphPad Prism v4 (GraphPad software, San Diego, Calif.).
# [5] = target: T1, human CD123 (IL-3Rα, interleukin-3 …); assay: flow cytometry on HNT-34 cells, PE-conjugated goat anti-human secondary; remark: listed apart in the source
# [6] = target: T1, human CD123 (IL-3Rα, interleukin-3 …); assay: cell-based or functional assay; remark: listed apart in the source
# [7] = target: T1, human CD123 (IL-3Rα, interleukin-3 …); assay: cell-based or functional assay; remark: listed apart in the source
# [8] = target: T1, human CD123 (IL-3Rα, interleukin-3 …); assay: flow cytometry on HNT-34 cells; apparent Kd
binder,measurement,setting,value
B1,EC50 (read off the curve),[1],~40 pM
B2,"IC50, inhibition of IL-3 dependent proliferation of TF-1 cells",[2],0.08 nM
same,Kd,[3],0.5 nM
same,Kd,[4],0.3 nM
B3,"IC50, inhibition of IL-3 dependent proliferation of TF-1 cells",[2],0.26 nM
same,Kd,[3],0.2 nM
same,Kd,[4],0.3 nM
B4,EC50 (read off the curve),[1],~60 pM
B5,EC50 (read off the curve),[5],~100 pM
B6,EC50 (read off the curve),[5],~100 pM
B7,"IC50, in vitro cytotoxicity on EOL-1 cells",[2],~2 pM
same,"IC50, in vitro cytotoxicity on KOPN-8 cells",[2],~5 pM
same,"IC50, in vitro cytotoxicity on MOLM-1 cells",[2],~0.02 nM
same,fold loss of cytotoxicity when CD123 is blocked by the unconjugated chCD123-6 antibody,[2],≥ 100 fold
B8,EC50 (read off the curve),[5],~200 pM
B9,"IC50, in vitro cytotoxicity on HNT-34 cells",[2],~2 pM
same,"IC50, in vitro cytotoxicity on MOLM-1 cells",[2],~0.03 nM
same,"IC50, in vitro cytotoxicity on SHI-1 cells",[2],~0.01 nM
same,fold loss of cytotoxicity when CD123 is blocked by the unconjugated huCD123-6 antibody,[2],≥ 100 fold
B10,"IC50, in vitro cytotoxicity on OCI-AML4 cells",[2],0.07 nM
B11,EC50 (read off the curve),[5],~200 pM
B12,"IC50, in vitro cytotoxicity on HNT-34 cells",[2],~2 pM
same,"IC50, in vitro cytotoxicity on MOLM-1 cells",[2],~0.03 nM
same,"IC50, in vitro cytotoxicity on SHI-1 cells",[2],~0.01 nM
same,fold loss of cytotoxicity when CD123 is blocked by the unconjugated huCD123-6 antibody,[2],≥ 100 fold
same,"IC50, in vitro cytotoxicity on EOL-1 cells (AML)",[6],2.5 pM
same,"IC50, in vitro cytotoxicity on Granta519 cells (NHL)",[6],1.2 pM
same,"IC50, in vitro cytotoxicity on HNT-34 cells (AML)",[6],2 pM
same,"IC50, in vitro cytotoxicity on JM-1 cells (B-ALL)",[6],24 pM
same,"IC50, in vitro cytotoxicity on KASUMI-3 cells (AML)",[6],9.8 pM
same,"IC50, in vitro cytotoxicity on KCL-22 cells (CML)",[6],30 pM
same,"IC50, in vitro cytotoxicity on KG-1 cells (AML)",[6],220 pM
same,"IC50, in vitro cytotoxicity on KO52 cells (AML)",[6],14 pM
same,"IC50, in vitro cytotoxicity on KOPN8 cells (B-ALL)",[6],11 pM
same,"IC50, in vitro cytotoxicity on MOLM-1 cells (CML)",[6],29 pM
same,"IC50, in vitro cytotoxicity on MOLM-13 cells (AML)",[6],0.49 pM
same,"IC50, in vitro cytotoxicity on MV4-11 cells (AML)",[6],0.56 pM
same,"IC50, in vitro cytotoxicity on OCI-AML2 cells (AML)",[6],88 pM
same,"IC50, in vitro cytotoxicity on SHI-1 cells (AML)",[6],13 pM
same,"IC50, in vitro cytotoxicity on THP1 cells (AML)",[6],6.7 pM
B13,"IC50, in vitro cytotoxicity on EOL-1 cells",[2],~2 pM
same,"IC50, in vitro cytotoxicity on KOPN-8 cells",[2],~5 pM
same,"IC50, in vitro cytotoxicity on MOLM-1 cells",[2],~0.02 nM
same,fold loss of cytotoxicity when CD123 is blocked by the unconjugated chCD123-6 antibody,[2],≥ 100 fold
B14,"Fold-specificity IC50 control ADC/IC50 huCD123-CysMab-D5, EOL-1 cells",[7],1000 fold
same,"Fold-specificity IC50 control ADC/IC50 huCD123-CysMab-D5, HNT-34 cells",[7],1100 fold
same,"Fold-specificity IC50 control ADC/IC50 huCD123-CysMab-D5, KASUMI-3 cells",[7],100 fold
same,"Fold-specificity IC50 control ADC/IC50 huCD123-CysMab-D5, KG-1 cells",[7],95 fold
same,"Fold-specificity IC50 control ADC/IC50 huCD123-CysMab-D5, KO52 cells",[7],100 fold
same,"Fold-specificity IC50 control ADC/IC50 huCD123-CysMab-D5, MOLM-1 cells",[7],> 167 fold
same,"Fold-specificity IC50 control ADC/IC50 huCD123-CysMab-D5, MV4-11 cells",[7],2000 fold
same,"Fold-specificity IC50 control ADC/IC50 huCD123-CysMab-D5, Molm-13 cells",[7],2000 fold
same,"Fold-specificity IC50 control ADC/IC50 huCD123-CysMab-D5, SHI-1 cells",[7],> 3.33 fold
same,"Fold-specificity IC50 control ADC/IC50 huCD123-CysMab-D5, SKM-1 cells",[7],57 fold
same,"Fold-specificity IC50 control ADC/IC50 huCD123-CysMab-D5, THP-1 cells",[7],167 fold
same,"Fold-specificity IC50 control ADC/IC50 huCD123-CysMab-D5, UCSD-AML1 cells",[7],400 fold
same,"IC50, in vitro cytotoxicity on EOL-1 cells",[7],2 pmol
same,"IC50, in vitro cytotoxicity on HNT-34 cells",[7],1 pmol
same,"IC50, in vitro cytotoxicity on KASUMI-3 cells",[7],3 pmol
same,"IC50, in vitro cytotoxicity on KG-1 cells",[7],60 pmol
same,"IC50, in vitro cytotoxicity on KO52 cells",[7],20 pmol
same,"IC50, in vitro cytotoxicity on MOLM-1 cells",[7],120 pmol
same,"IC50, in vitro cytotoxicity on MV4-11 cells",[7],1 pmol
same,"IC50, in vitro cytotoxicity on Molm-13 cells",[7],0.5 pmol
same,"IC50, in vitro cytotoxicity on SHI-1 cells",[7],6 pmol
same,"IC50, in vitro cytotoxicity on SKM-1 cells",[7],7 pmol
same,"IC50, in vitro cytotoxicity on THP-1 cells",[7],30 pmol
same,"IC50, in vitro cytotoxicity on UCSD-AML1 cells",[7],1 pmol
same,EC50 (read off the curve),[1],~80 pM
B15,"IC50, inhibition of IL-3 dependent proliferation of TF-1 cells",[2],0.05 nM
same,Kd,[8],~0.06 nM
same,Kd,[3],0.07 nM
same,Kd,[4],0.1 nM
